Test results taken from PMC10786891, “Massively parallel profiling of RNA-targeting CRISPR-Cas13d”.

T1: EsCas13d, nuclease-dead (Eubacterium siraeum, UniProt B0MS50, R295A;H300A;R849A;H854A)
T1 sequence: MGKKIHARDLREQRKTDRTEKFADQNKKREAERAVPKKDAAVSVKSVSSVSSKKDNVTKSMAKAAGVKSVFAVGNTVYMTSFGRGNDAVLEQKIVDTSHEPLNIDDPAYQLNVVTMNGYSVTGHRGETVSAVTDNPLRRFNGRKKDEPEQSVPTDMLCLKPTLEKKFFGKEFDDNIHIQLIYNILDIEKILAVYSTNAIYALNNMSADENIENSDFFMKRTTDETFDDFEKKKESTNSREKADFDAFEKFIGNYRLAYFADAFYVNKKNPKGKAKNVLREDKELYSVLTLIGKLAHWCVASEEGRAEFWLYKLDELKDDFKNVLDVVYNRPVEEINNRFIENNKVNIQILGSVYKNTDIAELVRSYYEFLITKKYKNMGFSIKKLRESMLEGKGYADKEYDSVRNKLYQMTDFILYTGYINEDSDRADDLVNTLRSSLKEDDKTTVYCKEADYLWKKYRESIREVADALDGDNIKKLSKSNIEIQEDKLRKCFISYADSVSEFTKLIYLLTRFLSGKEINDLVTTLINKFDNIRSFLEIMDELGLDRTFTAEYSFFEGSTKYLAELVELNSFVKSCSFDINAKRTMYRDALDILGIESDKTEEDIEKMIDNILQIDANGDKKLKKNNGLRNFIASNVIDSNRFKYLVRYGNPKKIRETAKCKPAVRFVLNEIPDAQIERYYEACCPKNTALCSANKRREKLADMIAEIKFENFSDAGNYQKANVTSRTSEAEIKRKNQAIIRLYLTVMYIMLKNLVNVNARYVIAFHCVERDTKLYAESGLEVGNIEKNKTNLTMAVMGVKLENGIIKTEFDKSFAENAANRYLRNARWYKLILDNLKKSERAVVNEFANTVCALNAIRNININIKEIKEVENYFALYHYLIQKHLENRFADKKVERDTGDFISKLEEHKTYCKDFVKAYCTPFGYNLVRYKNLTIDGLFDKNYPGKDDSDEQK

B1: target 1 MT 5'PFS GCC 3'PFS CCG (mixed)
RNA 1: CACCCGUGCAAAAAUGCAGGGGUCUAAAACUGAGCGGAUAACCUCUCUAUGG
RNA 2: GGGAAUGGAUCCACAUCUACGAAUUCGCCCCAUAGAGAGGUUAUCCGCUCACCGAGAUCGGAAGAGCACACGU
B2: target 1 MT 5'PFS GGU 3'PFS UCC (mixed)
RNA 1: CACCCGUGCAAAAAUGCAGGGGUCUAAAACUGAGCGGAUAACCUCUCUAUGG
RNA 2: GGGAAUGGAUCCACAUCUACGAAUUCGGUCCAUAGAGAGGUUAUCCGCUCAUCCAGAUCGGAAGAGCACACGU
B3: target 1 U11C,A18C (mixed)
RNA 1: CACCCGUGCAAAAAUGCAGGGGUCUAAAACUGAGCGGAUAACCUCUCUAUGG
RNA 2: GGGAAUGGAUCCACAUCUACGAAUUCGUACCAUCGAGAGGCUAUCCGCUCACCGAGAUCGGAAGAGCACACGU
B4: target 1 MT 5'PFS UCA 3'PFS UAA (mixed)
RNA 1: CACCCGUGCAAAAAUGCAGGGGUCUAAAACUGAGCGGAUAACCUCUCUAUGG
RNA 2: GGGAAUGGAUCCACAUCUACGAAUUCUCACCAUAGAGAGGUUAUCCGCUCAUAAAGAUCGGAAGAGCACACGU
B5: target 1 MT 5'PFS GCA 3'PFS CUU (mixed)
RNA 1: CACCCGUGCAAAAAUGCAGGGGUCUAAAACUGAGCGGAUAACCUCUCUAUGG
RNA 2: GGGAAUGGAUCCACAUCUACGAAUUCGCACCAUAGAGAGGUUAUCCGCUCACUUAGAUCGGAAGAGCACACGU
B6: target 1 C2A,A18C (mixed)
RNA 1: CACCCGUGCAAAAAUGCAGGGGUCUAAAACUGAGCGGAUAACCUCUCUAUGG
RNA 2: GGGAAUGGAUCCACAUCUACGAAUUCGUACCAUCGAGAGGUUAUCCGCUAACCGAGAUCGGAAGAGCACACGU
B7: target 1 MT 5'PFS GCC 3'PFS CCA (mixed)
RNA 1: CACCCGUGCAAAAAUGCAGGGGUCUAAAACUGAGCGGAUAACCUCUCUAUGG
RNA 2: GGGAAUGGAUCCACAUCUACGAAUUCGCCCCAUAGAGAGGUUAUCCGCUCACCAAGAUCGGAAGAGCACACGU
B8: target 1 MT 5'PFS GGU 3'PFS UCA (mixed)
RNA 1: CACCCGUGCAAAAAUGCAGGGGUCUAAAACUGAGCGGAUAACCUCUCUAUGG
RNA 2: GGGAAUGGAUCCACAUCUACGAAUUCGGUCCAUAGAGAGGUUAUCCGCUCAUCAAGAUCGGAAGAGCACACGU
B9: target 1 MT 5'PFS GAG 3'PFS UUC (mixed)
RNA 1: CACCCGUGCAAAAAUGCAGGGGUCUAAAACUGAGCGGAUAACCUCUCUAUGG
RNA 2: GGGAAUGGAUCCACAUCUACGAAUUCGAGCCAUAGAGAGGUUAUCCGCUCAUUCAGAUCGGAAGAGCACACGU
B10: target 1 MT 5'PFS GCU 3'PFS ACG (mixed)
RNA 1: CACCCGUGCAAAAAUGCAGGGGUCUAAAACUGAGCGGAUAACCUCUCUAUGG
RNA 2: GGGAAUGGAUCCACAUCUACGAAUUCGCUCCAUAGAGAGGUUAUCCGCUCAACGAGAUCGGAAGAGCACACGU
B11: target 1 MT 5'PFS UCA 3'PFS UAG (mixed)
RNA 1: CACCCGUGCAAAAAUGCAGGGGUCUAAAACUGAGCGGAUAACCUCUCUAUGG
RNA 2: GGGAAUGGAUCCACAUCUACGAAUUCUCACCAUAGAGAGGUUAUCCGCUCAUAGAGAUCGGAAGAGCACACGU
B12: target 1 MT 5'PFS GCU 3'PFS ACU (mixed)
RNA 1: CACCCGUGCAAAAAUGCAGGGGUCUAAAACUGAGCGGAUAACCUCUCUAUGG
RNA 2: GGGAAUGGAUCCACAUCUACGAAUUCGCUCCAUAGAGAGGUUAUCCGCUCAACUAGAUCGGAAGAGCACACGU
B13: target 1 MT 5'PFS GCU 3'PFS GAA (mixed)
RNA 1: CACCCGUGCAAAAAUGCAGGGGUCUAAAACUGAGCGGAUAACCUCUCUAUGG
RNA 2: GGGAAUGGAUCCACAUCUACGAAUUCGCUCCAUAGAGAGGUUAUCCGCUCAGAAAGAUCGGAAGAGCACACGU
B14: target 1 MT 5'PFS GCA 3'PFS CUA (mixed)
RNA 1: CACCCGUGCAAAAAUGCAGGGGUCUAAAACUGAGCGGAUAACCUCUCUAUGG
RNA 2: GGGAAUGGAUCCACAUCUACGAAUUCGCACCAUAGAGAGGUUAUCCGCUCACUAAGAUCGGAAGAGCACACGU
B15: target 1 MT 5'PFS GAG 3'PFS UUA (mixed)
RNA 1: CACCCGUGCAAAAAUGCAGGGGUCUAAAACUGAGCGGAUAACCUCUCUAUGG
RNA 2: GGGAAUGGAUCCACAUCUACGAAUUCGAGCCAUAGAGAGGUUAUCCGCUCAUUAAGAUCGGAAGAGCACACGU
B16: target 1 MT 5'PFS GCG 3'PFS ACG (mixed)
RNA 1: CACCCGUGCAAAAAUGCAGGGGUCUAAAACUGAGCGGAUAACCUCUCUAUGG
RNA 2: GGGAAUGGAUCCACAUCUACGAAUUCGCGCCAUAGAGAGGUUAUCCGCUCAACGAGAUCGGAAGAGCACACGU
B17: target 1 MT 5'PFS ACU 3'PFS ACA (mixed)
RNA 1: CACCCGUGCAAAAAUGCAGGGGUCUAAAACUGAGCGGAUAACCUCUCUAUGG
RNA 2: GGGAAUGGAUCCACAUCUACGAAUUCACUCCAUAGAGAGGUUAUCCGCUCAACAAGAUCGGAAGAGCACACGU
B18: target 1 MT 5'PFS UGC 3'PFS UUG (mixed)
RNA 1: CACCCGUGCAAAAAUGCAGGGGUCUAAAACUGAGCGGAUAACCUCUCUAUGG
RNA 2: GGGAAUGGAUCCACAUCUACGAAUUCUGCCCAUAGAGAGGUUAUCCGCUCAUUGAGAUCGGAAGAGCACACGU
B19: target 1 MT 5'PFS GCU 3'PFS ACC (mixed)
RNA 1: CACCCGUGCAAAAAUGCAGGGGUCUAAAACUGAGCGGAUAACCUCUCUAUGG
RNA 2: GGGAAUGGAUCCACAUCUACGAAUUCGCUCCAUAGAGAGGUUAUCCGCUCAACCAGAUCGGAAGAGCACACGU
B20: target 1 MT 5'PFS GUC 3'PFS CGC (mixed)
RNA 1: CACCCGUGCAAAAAUGCAGGGGUCUAAAACUGAGCGGAUAACCUCUCUAUGG
RNA 2: GGGAAUGGAUCCACAUCUACGAAUUCGUCCCAUAGAGAGGUUAUCCGCUCACGCAGAUCGGAAGAGCACACGU
B21: target 1 MT 5'PFS GUC 3'PFS CGA (mixed)
RNA 1: CACCCGUGCAAAAAUGCAGGGGUCUAAAACUGAGCGGAUAACCUCUCUAUGG
RNA 2: GGGAAUGGAUCCACAUCUACGAAUUCGUCCCAUAGAGAGGUUAUCCGCUCACGAAGAUCGGAAGAGCACACGU
B22: target 1 MT 5'PFS UGC 3'PFS CAA (mixed)
RNA 1: CACCCGUGCAAAAAUGCAGGGGUCUAAAACUGAGCGGAUAACCUCUCUAUGG
RNA 2: GGGAAUGGAUCCACAUCUACGAAUUCUGCCCAUAGAGAGGUUAUCCGCUCACAAAGAUCGGAAGAGCACACGU
B23: target 1 MT 5'PFS GUC 3'PFS CGG (mixed)
RNA 1: CACCCGUGCAAAAAUGCAGGGGUCUAAAACUGAGCGGAUAACCUCUCUAUGG
RNA 2: GGGAAUGGAUCCACAUCUACGAAUUCGUCCCAUAGAGAGGUUAUCCGCUCACGGAGAUCGGAAGAGCACACGU
B24: target 1 MT 5'PFS AAU 3'PFS AUC (mixed)
RNA 1: CACCCGUGCAAAAAUGCAGGGGUCUAAAACUGAGCGGAUAACCUCUCUAUGG
RNA 2: GGGAAUGGAUCCACAUCUACGAAUUCAAUCCAUAGAGAGGUUAUCCGCUCAAUCAGAUCGGAAGAGCACACGU
B25: target 1 MT 5'PFS GCG 3'PFS ACA (mixed)
RNA 1: CACCCGUGCAAAAAUGCAGGGGUCUAAAACUGAGCGGAUAACCUCUCUAUGG
RNA 2: GGGAAUGGAUCCACAUCUACGAAUUCGCGCCAUAGAGAGGUUAUCCGCUCAACAAGAUCGGAAGAGCACACGU
B26: target 1 MT 5'PFS UCA 3'PFS UAU (mixed)
RNA 1: CACCCGUGCAAAAAUGCAGGGGUCUAAAACUGAGCGGAUAACCUCUCUAUGG
RNA 2: GGGAAUGGAUCCACAUCUACGAAUUCUCACCAUAGAGAGGUUAUCCGCUCAUAUAGAUCGGAAGAGCACACGU
B27: target 1 MT 5'PFS UGC 3'PFS UUC (mixed)
RNA 1: CACCCGUGCAAAAAUGCAGGGGUCUAAAACUGAGCGGAUAACCUCUCUAUGG
RNA 2: GGGAAUGGAUCCACAUCUACGAAUUCUGCCCAUAGAGAGGUUAUCCGCUCAUUCAGAUCGGAAGAGCACACGU
B28: target 1 insG 3' of 22,insC 3' of 14 (mixed)
RNA 1: CACCCGUGCAAAAAUGCAGGGGUCUAAAACUGAGCGGAUAACCUCUCUAUGG
RNA 2: GGGAAUGGAUCCACAUCUACGAAUUCGUACGCAUAGAGACGGUUAUCCGCUCACCGAGAUCGGAAGAGCACACGU

Biological target: T1, EsCas13d, nuclease-dead
Test: crRNA (strand 1, pre-loaded); Mg2+; 40 mM Tris-HCl pH 7.5, 150 mM NaCl, 6 mM MgCl2, 1 mM DTT, 0.1% Tween-20, 0.2 mg/ml BSA; 25 C; 10 min per concentration, then washed
Conditions: tags: His6-TwinStrep-SUMO cleaved; N-terminal SNAP kept (SNAP-Surface 488); label: 3' end held by stalled T7 RNA polymerase

Binder | Kd [nM]
B1 | 12.9 ± 3.15
B2 | 21 ± 5.5
B3 | 75 ± 10
B4 | 9.45 ± 3.3
B5 | 11.8 ± 2.55
B6 | 47.9 ± 3.3
B7 | 95 ± 40
B8 | 44 ± 19
B9 | 37 ± 11
B10 | 43.5 ± 10.5
B11 | ~50
B12 | 33 ± 11
B13 | ~110
B14 | 18.4 ± 4.7
B15 | 36 ± 9
B16 | 49.5 ± 10
B17 | ~90
B18 | 10.7 ± 2.05
B19 | 43 ± 14.5
B20 | 22 ± 4.5
B21 | 19.5 ± 4
B22 | 63 ± 28.5
B23 | 28.5 ± 7
B24 | 28.5 ± 12
B25 | 32.5 ± 14.5
B26 | 11.5 ± 2.3
B27 | 14 ± 3.7
B28 | 41 ± 17
